Where a chain is given by its changes, count along the chain named.
B1: antibody 16 (antibody, V domains shown)
VH: QVTLKESGPGILQPSQTLSLTCSFSGFSLSTFALGVGWIRQPSGRGLEWLAHIWWDDDKYYNPALKSRLTISKDTSKNHVFLKIANVDTADTATYYCARITTYYYGMDYWGQGTSVTVSS
VL: DIVLSQSPATLSVTPGDSVSLFCRASQSIGNHLHWYQQESHASPRLLIKYASQSISGIPSRFSGSGSGTDFTLSINSVETEDFGMYFCQQSYNWPLTFGAGTKLELK
notes: Mouse IgG, kappa light chain; also called clone #16; m16
B2: antibody 43 (antibody, V domains shown)
VH: QVALKESGPGILQPSQTLSLTCSFSGFSLSTFGMGVGWIRQSSGKGLEWLANIWWDDDKYYNPALKSRLTISKDASKNQAFLKIANVDTADTATYYCARIGNYGSNYWYFDVWGTGTTVTVSS
VL: QIVLTQSPAIMSASPGERVTMTCSANSRISYMYWYQQKPGSSPRLLIYDTSNLASGVPVRFSGSGSGTSYSLTISRMEAEDAATYNCQQWSSYPLTFGAGTKLELK
notes: Mouse IgG, kappa light chain; also called clone #43
B3: antibody 5 (antibody, V domains shown)
VH: B2 VH with A3T, S42P, N52H, D58E, P63S, D74A, A75T, G101S, D111N
VL: QVVLTQSPALMSASPGEKVTMTCSAGSSVSCMYWYQQKPGSSPRVLIYDTSNLASGVPARFTGSGSGTSYSLTISRMEAEDAASYYCQQWNSYPLTFGAGTKLELK
notes: Mouse IgG, kappa light chain; also called clone #5; purified antibody 5
B4: antibody 44 (antibody, V domains shown)
VH: B2 VH with A3T, S42P, G44E, N52H, A75T, A80I, A85T, D91E, A98S
VL: QIVLTQSPAVMSASPGEKVTMTCTASSSVYYMYWYQQTPGSSPRLLIYDTSNLASGVPVRFSGSGSGTSYSLTISRMEAEDAATYYCQQWNTYPLTFGAGTKLELK
notes: Mouse IgG, kappa light chain; also called clone #44; m44
B5: antibody 48 (antibody, V domains shown)
VH: QVQLQQSGTELVRPGTSVKVSCKASGYAFTNYLIEWVKQRPGQGLEWIGVINPGSGFTKYNEKFKGKATLTADKSSSTVYMHLSSLTSEDSAVYFCARGLYRAMDYWGQGTSVTVSS
VL: DIQMTQSPASQSASLGESVTITCLASQTIATWLAWYQQKPGKSPQLLIYGATTLADGVPSRFSGGGSGTKFSFKISSLQAEDFVSYYCQQLYSTPYTFGGGTKLEIK
notes: Mouse IgG, kappa light chain; also called clone #48; purified antibody 48
B6: antibody 47 (antibody, V domains shown)
VH: B5 VH with T9A, K59N, T69I, T71N, V79A, H82Q, S84I, G99D, Y101K, Y106H
VL: B5 VL with A30G, Y49H, G50A, T53S, G65S, L91I, T94S
notes: Mouse IgG, kappa light chain; also called clone #47
B7: antibody 50 (antibody, V domains shown)
VH: B5 VH with T9A, T16A, T30S, V79A, H82Q
VL: B5 VL with A30G, G50A, T52A, T53S, S85N, L91I
notes: Mouse IgG, kappa light chain; also called clone #50; purified antibody 50
B8: antibody 51 (antibody, V domains shown)
VH: QVQLQQSGAELVKPGASVKISCKASGYTFSNYWMNWVKQRPGKGLEWIGQIYPGDGDTKYNGKFKNKATLTADKSSSTAYMQFSSLTSEDSAVYFCARGDLVFVYWGLGTLVTVSA
VL: DVQITQSPSYLAVSPGETITINCRASKNIRKYLAWYQEKPGKTNKLLIYSGSTSQSGVPSRFSGSGSGTDFTLTISSLEPEDFAMYYCQQHNEYPYTFGGGTKLEIK
notes: Mouse IgG, kappa light chain; also called clone #51
B9: antibody 3 (antibody, V domains shown)
VH: QVTLKESGPGILQPSQTLSLTCSFSGFSLTTFAMGIGWVRQPSGKGLEWLAHIWWDGEKYNNPVLKSRLTISKDTSKNQVFLRIANVDTPDTATYYCARISSIYYIIDNWGQGTSVTVSS
VL: B1 VL with S5T, D17H, F22S, G30S, H32N, Q38K, E39K, A42E, A51V
notes: Mouse IgG, kappa light chain; also called clone #3; purified antibody 3

These binders were tested against T1, miR2-FL-WT-FLAG (mouse iRhom2 full length wild type C-terminally tagged with the triple-FLAG epitope) (mouse, UniProt Q80WQ6 1-827) (assay: FACS, MEF-DKO-miR2-FL-WT-FLAG cells).
T1 construct: also called expressed by MEF-DKO-miR2-FL-WT-FLAG cells
T1 sequence: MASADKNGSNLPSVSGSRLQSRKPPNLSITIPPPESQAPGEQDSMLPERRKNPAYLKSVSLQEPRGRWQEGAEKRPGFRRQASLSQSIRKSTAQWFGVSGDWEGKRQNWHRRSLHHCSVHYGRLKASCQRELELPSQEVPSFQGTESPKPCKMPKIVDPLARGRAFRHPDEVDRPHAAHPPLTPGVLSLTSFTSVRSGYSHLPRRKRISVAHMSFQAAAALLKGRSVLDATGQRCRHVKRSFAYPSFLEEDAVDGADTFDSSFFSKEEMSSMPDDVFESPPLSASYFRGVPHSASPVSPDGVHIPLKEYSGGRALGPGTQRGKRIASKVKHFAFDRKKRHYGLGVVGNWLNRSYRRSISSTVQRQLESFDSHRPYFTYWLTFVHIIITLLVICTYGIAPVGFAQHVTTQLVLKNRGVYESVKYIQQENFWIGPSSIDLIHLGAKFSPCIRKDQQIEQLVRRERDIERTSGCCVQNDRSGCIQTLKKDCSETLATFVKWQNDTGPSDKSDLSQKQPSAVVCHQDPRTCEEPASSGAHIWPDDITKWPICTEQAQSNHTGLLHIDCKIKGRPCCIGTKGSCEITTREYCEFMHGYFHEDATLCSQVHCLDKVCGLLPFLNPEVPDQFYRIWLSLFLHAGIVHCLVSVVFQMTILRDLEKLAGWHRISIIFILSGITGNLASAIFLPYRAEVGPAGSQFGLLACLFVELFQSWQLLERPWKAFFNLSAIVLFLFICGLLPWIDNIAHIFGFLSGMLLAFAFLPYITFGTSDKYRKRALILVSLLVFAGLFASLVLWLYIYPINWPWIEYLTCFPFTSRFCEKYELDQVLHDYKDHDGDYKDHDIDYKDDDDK
Protocol: In brief, immortalized MEF-DKO-EV control cells, MEF-DKO-hiR2-FL-WT-FLAG cells and MEF-DKO-miR2-FL-WT-FLAG cells were harvested with 10 mM EDTA in PBS, washed and resuspended in FACS buffer (PBS, 3% FBS, 0.05% sodium azide), and seeded in Nunc U-bottom 96-well plates (Thermo Fisher Scientific, USA) at approximately 3×10⁵ cells per well. To pellet cells and remove supernatants, the plates were centrifuged at 1,500 rpm and 4° C. for 3 minutes. For primary staining, cells were resuspended in 100 μl per well of either FACS buffer alone (controls), mouse monoclonal anti-FLAG IgG (Sigma-Aldrich, USA) at 3 μg/ml FACS buffer or the antibodies of the present disclosure also at 3 μg/ml FACS buffer and incubated on ice for 1 hour. Afterwards, plates were centrifuged at 1,500 rpm and 4° C. for 3 minutes and washed twice with 200 μl per well of FACS buffer. For secondary staining, cells were spun down and resuspended in 100 μl per well of PE-conjugated goat anti-mouse IgG F(ab′)2 detection fragment (Dianova, Germany) diluted 1:100 in FACS buffer. Protected from light, the cell suspensions were incubated on ice for 1 hour. Plates were then centrifuged at 1,500 rpm and 4° C. for 3 minutes and washed three times with 200 μl per well of FACS buffer. Finally, cells were resuspended in 150 μl per well of FACS buffer and analyzed using a BD Accuri™ C6 Plus flow cytometer (Becton Dickinson, Germany).

Binder | binding result
B1 | no binding (tested: 3 µg/ml)
B2 | no binding (tested: 3 µg/ml)
B3 | no binding (tested: 3 µg/ml)
B4 | no binding (tested: 3 µg/ml)
B5 | no binding (tested: 3 µg/ml)
B6 | no binding (tested: 3 µg/ml)
B7 | no binding (tested: 3 µg/ml)
B8 | no binding (tested: 3 µg/ml)

Each binder was assayed against T2, human iRhom2 (inactive rhomboid protein 2, isoform 1), endogenously expressed on human cells (human, UniProt Q6PJF5 1-856) (assay: cell-based or functional assay).
T2 sequence: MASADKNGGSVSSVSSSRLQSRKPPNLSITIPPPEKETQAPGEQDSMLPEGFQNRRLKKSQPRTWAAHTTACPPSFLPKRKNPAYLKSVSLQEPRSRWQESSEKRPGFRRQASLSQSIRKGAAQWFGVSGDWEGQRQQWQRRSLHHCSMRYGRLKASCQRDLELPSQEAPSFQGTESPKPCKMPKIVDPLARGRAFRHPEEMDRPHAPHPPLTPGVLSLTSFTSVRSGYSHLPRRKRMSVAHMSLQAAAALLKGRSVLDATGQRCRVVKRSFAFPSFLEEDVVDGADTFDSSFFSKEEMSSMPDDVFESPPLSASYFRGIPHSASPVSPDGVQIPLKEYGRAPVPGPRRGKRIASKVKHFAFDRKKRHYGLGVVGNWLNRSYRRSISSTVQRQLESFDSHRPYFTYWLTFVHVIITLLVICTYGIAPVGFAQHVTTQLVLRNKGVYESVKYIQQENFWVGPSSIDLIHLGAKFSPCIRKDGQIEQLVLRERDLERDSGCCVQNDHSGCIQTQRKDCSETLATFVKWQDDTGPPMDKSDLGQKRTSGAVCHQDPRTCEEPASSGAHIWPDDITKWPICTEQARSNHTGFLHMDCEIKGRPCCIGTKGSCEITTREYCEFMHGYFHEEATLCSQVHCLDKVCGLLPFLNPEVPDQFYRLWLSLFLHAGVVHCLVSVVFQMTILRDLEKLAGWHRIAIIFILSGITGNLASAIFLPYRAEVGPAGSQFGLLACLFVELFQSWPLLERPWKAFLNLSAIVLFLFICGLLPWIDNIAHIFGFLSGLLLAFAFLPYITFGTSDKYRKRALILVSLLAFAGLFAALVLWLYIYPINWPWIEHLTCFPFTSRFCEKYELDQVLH

Binder | inhibition of LPS-induced release of TNFα from PBMCs of healthy donors, 1 µg/ml | inhibition of LPS-induced release of TNFα from THP-1 cells, 10 µg/ml, antibody purified from hybridoma | inhibition of LPS-induced release of TNFα from THP-1 cells, recombinant antibody | inhibition of LPS-induced release of TNFα from human macrophages of healthy donors | inhibition of PMA-induced release of HB-EGF from PBMCs of healthy donors, 1 µg/ml | inhibition of PMA-induced release of HB-EGF from THP-1 cells, 3 µg/ml | inhibition of PMA-induced release of HB-EGF from U-937 cells | inhibition of PMA-induced release of IL-6R from PBMCs of healthy donors, 1 µg/ml | inhibition of PMA-induced release of IL-6R from THP-1 cells, 1 µg/ml | inhibition of PMA-induced release of IL-6R from U-937 cells, 1 µg/ml
B1 | 81.3 % inhibition | 65.4 % inhibition | 70.7 % inhibition | 85.8 % inhibition | 71.6 % inhibition | 71.9 % inhibition | 99.6 % inhibition | 84.3 % inhibition | 72.5 % inhibition | 77.7 % inhibition
B9 | – | 71.2 % inhibition | 59.9 % inhibition | – | – | – | – | – | 46.7 % inhibition | 61.8 % inhibition
B2 | – | 74.8 % inhibition | 78.5 % inhibition | – | – | – | – | – | 72.9 % inhibition | 76.1 % inhibition
B3 | – | 69 % inhibition | 70.5 % inhibition | – | – | – | – | – | 64.1 % inhibition | 67 % inhibition
B4 | – | 32.2 % inhibition | 73.2 % inhibition | – | – | 67.5 % inhibition | 100 % inhibition | – | 73 % inhibition | 71.8 % inhibition

Same assay, conditions: not given

Binder | inhibition of PMA-induced release of IL-6R from U-937 cells, 3 µg/ml | inhibition of PMA-induced release of TGFα from PC3 cells, 1 µg/ml | inhibition of PMA-induced release of TNFα from U-937 cells, 1 µg/ml | inhibition of PMA-induced release of TNFα from U-937 cells, 3 µg/ml
B1 | 77.4 % inhibition | 13.9 % inhibition | 91.6 % inhibition | 91.9 % inhibition
B9 | – | – | 65.9 % inhibition | –
B2 | – | 12.4 % inhibition | 78.3 % inhibition | –
B3 | – | – | 63.6 % inhibition | –
B4 | 82 % inhibition | 14.1 % inhibition | 76.5 % inhibition | 86.3 % inhibition

— patent US20240174744A1 (SCIRHOM, published 2024)
